Reference: doi:10.1101/2023.11.02.565342

T1: TOPOVIBLΔC25 (monomer) (Mus musculus, UniProt J3QMY9 1-554)
T1 sequence: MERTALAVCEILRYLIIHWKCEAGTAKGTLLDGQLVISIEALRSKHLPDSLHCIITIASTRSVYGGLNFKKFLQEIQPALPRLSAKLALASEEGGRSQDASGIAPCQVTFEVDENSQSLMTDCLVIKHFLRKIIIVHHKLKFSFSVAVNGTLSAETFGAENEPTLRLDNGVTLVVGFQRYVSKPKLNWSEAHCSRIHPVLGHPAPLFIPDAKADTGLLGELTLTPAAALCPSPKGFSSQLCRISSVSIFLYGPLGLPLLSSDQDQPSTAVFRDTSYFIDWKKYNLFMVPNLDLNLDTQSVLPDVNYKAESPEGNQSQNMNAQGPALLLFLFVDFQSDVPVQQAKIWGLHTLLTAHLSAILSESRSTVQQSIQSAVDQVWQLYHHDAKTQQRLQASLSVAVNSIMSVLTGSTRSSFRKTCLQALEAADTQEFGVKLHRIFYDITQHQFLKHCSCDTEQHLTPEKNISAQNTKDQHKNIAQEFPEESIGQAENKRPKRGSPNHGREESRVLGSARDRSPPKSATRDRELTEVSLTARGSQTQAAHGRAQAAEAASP

T2: TOPOVIBLΔC25 K281E K282E (Mus musculus, UniProt J3QMY9 1-554, K281E;K282E)
T2 sequence: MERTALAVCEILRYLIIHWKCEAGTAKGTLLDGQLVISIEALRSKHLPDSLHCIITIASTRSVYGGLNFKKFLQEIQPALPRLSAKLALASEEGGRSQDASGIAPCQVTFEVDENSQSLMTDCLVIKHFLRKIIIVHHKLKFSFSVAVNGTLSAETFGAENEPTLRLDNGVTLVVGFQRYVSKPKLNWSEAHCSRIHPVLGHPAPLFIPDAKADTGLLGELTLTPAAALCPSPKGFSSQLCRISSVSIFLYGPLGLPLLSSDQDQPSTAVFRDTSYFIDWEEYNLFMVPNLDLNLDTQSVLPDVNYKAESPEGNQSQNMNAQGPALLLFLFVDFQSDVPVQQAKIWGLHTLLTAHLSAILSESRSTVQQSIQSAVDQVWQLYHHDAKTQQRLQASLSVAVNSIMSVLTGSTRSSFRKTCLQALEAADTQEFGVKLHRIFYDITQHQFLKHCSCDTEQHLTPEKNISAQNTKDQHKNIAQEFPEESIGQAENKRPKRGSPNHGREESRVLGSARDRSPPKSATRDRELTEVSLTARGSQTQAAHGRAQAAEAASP


Assays:
[1] = target: HSP70 (Spodoptera frugiperda (endogenous in Sf9)); experiment: native MS
TOPOVIBLΔC25 (monomer) [2] = target: T1, TOPOVIBLΔC25 (monomer); experiment: fluorescence anisotropy
TOPOVIBLΔC25 (monomer) [3] = target: T1, TOPOVIBLΔC25 (monomer); experiment: fluorescence anisotropy; remark: listed apart in the source
TOPOVIBLΔC25 K281E K282E = target: T2, TOPOVIBLΔC25 K281E K282E; experiment: fluorescence anisotropy
TOPOVIBLΔC25 (monomer) [4] = target: T1, TOPOVIBLΔC25 (monomer); experiment: competition

| Molecule | Kd (TOPOVIBLΔC25 (monomer) [2]) | further results |
| --- | --- | --- |
| HSP70 (natural protein) |  | stoichiometry N [1]: 2 |
| 2B70 dsDNA (dsDNA) DNA 1: AGACAAGAGATGGCCCTTTCCAGAAGCTACCACCATCATGTCTTCTACCACTGTGCACTAATATAGTGTG DNA 2: CACACTATATTAGTGCACAGTGGTAGAAGACATGATGGTGGTAGCTTCTGGAAAGGGCCATCTCTTGTCT | 1500 nM |  |
| U40 dsDNA (dsDNA) DNA 1: CTATTGAAAAAGGAAGAGTATGAGTATTCAACATTTCCGC DNA 2: GCGGAAATGTTGAATACTCATACTCTTCCTTTTTCAATAG |  | binding result (TOPOVIBLΔC25 (monomer) [3]): binds |
| 2B20 dsDNA (dsDNA) DNA 1: GCTACCACCATCATGTCTTC DNA 2: GAAGACATGATGGTGGTAGC | 1610 nM |  |
| 2B39 dsDNA (dsDNA) DNA 1: CTTTCCAGAAGCTACCACCATCATGTCTTCTACCACTGT DNA 2: ACAGTGGTAGAAGACATGATGGTGGTAGCTTCTGGAAAG | 650 nM | binding signal (TOPOVIBLΔC25 K281E K282E): 3 mutant/wild type Kd ratio |
| CTTTCCAGAAGCTACCACCATCATGTCTTCTACCACTGT (ssDNA) [ss2B39 (labeled)] | 310 nM |  |
| ACAGTGGTAGAAGACATGATGGTGGTAGCTTCTGGAAAG (ssDNA) [ss2B39 (unlabeled competitor)] |  | binding result (TOPOVIBLΔC25 (monomer) [4]): binds |
| 2B60 dsDNA (dsDNA) DNA 1: AGAGATGGCCCTTTCCAGAAGCTACCACCATCATGTCTTCTACCACTGTGCACTAATATA DNA 2: TATATTAGTGCACAGTGGTAGAAGACATGATGGTGGTAGCTTCTGGAAAGGGCCATCTCT | 900 nM |  |
